Assay results reported in patent US20240109955A1.

Key:
Test in all cases: cell-based or functional assay
[1] = target: SARS-CoV-2 spike (S) protein, Omicron variant BA.2.12.1 (SARS-CoV-2) (UniProt P0DTC2)
[2] = target: SARS-CoV-2 spike (S) protein, Omicron variant BA.1 (SARS-CoV-2) (UniProt P0DTC2)
[3] = target: SARS-CoV-2 spike (S) protein, Omicron variant BA.2 (SARS-CoV-2) (UniProt P0DTC2)
[4] = target: SARS-CoV-2 spike protein, Delta variant (B.1.617.2) (SARS-CoV-2)
[5] = target: SARS-CoV-2 spike protein, Alpha variant (B.1.1.7) (SARS-CoV-2)
[6] = target: SARS-CoV-2 spike protein, Beta variant 1 (B.1.351 v1) (SARS-CoV-2)
[7] = target: SARS-CoV-2 spike protein, Gamma variant (P.1) (SARS-CoV-2)
[8] = target: SARS-CoV-2 spike protein, Mu variant (B.1.621) (SARS-CoV-2)
[9] = target: SARS-CoV-2 spike protein, C.1.2 variant (SARS-CoV-2)
[10] = target: SARS-CoV-2 Omicron BA.4.6 spike protein (R346T, F486V) (SARS-CoV-2) (UniProt P0DTC2)
[11] = target: SARS-CoV-2 spike (S) protein of Omicron sublineage BJ.1 (R346T, V445P, G446S) (SARS-CoV-2) (UniProt P0DTC2)
[12] = target: SARS-CoV-2 spike (S) protein of Omicron sublineage BA.2.75 (G446S) (SARS-CoV-2) (UniProt P0DTC2)
[13] = target: SARS-CoV-2 spike (S) protein of Omicron sublineage BQ.1.1 (R346T, K444T, F486V) (SARS-CoV-2) (UniProt P0DTC2)

MX 490 (A23-58H/B1-182L × A19-46) (bispecific antibody), sequence (chain): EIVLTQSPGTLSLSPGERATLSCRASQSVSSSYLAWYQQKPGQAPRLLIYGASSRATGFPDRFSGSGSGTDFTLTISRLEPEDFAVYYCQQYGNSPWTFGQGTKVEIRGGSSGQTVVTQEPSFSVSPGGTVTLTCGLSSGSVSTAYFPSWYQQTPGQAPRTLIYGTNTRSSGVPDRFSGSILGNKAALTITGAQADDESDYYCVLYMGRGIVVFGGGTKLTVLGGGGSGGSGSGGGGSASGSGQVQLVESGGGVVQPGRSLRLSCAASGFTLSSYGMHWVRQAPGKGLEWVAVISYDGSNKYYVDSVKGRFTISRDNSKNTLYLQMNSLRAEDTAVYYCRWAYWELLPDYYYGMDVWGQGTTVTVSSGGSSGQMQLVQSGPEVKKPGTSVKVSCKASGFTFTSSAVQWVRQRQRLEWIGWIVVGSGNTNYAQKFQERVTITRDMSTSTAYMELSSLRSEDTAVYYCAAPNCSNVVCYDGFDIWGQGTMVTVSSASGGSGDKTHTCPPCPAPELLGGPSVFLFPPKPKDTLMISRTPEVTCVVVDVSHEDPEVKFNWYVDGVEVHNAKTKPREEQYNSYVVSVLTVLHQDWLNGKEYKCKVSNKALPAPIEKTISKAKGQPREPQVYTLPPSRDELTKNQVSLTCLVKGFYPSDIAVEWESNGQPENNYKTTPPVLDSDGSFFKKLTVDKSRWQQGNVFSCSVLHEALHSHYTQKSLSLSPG
MX492 (A19-46 × A23-58H/B1-182L) (bispecific antibody), sequence (chain): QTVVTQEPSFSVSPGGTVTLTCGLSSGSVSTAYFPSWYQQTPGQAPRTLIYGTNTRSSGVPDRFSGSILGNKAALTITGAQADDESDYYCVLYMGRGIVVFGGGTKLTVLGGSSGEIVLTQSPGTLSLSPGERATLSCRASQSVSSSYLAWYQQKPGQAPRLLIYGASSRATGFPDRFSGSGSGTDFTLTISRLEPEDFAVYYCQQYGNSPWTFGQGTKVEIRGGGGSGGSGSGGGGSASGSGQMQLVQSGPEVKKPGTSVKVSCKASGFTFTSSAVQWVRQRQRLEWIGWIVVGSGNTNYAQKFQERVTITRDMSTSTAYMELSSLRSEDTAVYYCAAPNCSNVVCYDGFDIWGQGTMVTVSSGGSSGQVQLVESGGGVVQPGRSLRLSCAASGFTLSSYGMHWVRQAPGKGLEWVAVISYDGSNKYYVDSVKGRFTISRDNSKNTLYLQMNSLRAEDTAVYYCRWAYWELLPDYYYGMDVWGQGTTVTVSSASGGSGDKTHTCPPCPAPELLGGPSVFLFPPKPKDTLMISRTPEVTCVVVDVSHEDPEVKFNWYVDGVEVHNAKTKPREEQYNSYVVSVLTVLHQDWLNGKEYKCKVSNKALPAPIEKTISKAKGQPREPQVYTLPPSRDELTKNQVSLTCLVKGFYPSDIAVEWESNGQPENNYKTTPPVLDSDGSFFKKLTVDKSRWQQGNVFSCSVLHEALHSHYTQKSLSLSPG
MX180 (B1-182 × A19-46) (bispecific antibody), sequence (chain): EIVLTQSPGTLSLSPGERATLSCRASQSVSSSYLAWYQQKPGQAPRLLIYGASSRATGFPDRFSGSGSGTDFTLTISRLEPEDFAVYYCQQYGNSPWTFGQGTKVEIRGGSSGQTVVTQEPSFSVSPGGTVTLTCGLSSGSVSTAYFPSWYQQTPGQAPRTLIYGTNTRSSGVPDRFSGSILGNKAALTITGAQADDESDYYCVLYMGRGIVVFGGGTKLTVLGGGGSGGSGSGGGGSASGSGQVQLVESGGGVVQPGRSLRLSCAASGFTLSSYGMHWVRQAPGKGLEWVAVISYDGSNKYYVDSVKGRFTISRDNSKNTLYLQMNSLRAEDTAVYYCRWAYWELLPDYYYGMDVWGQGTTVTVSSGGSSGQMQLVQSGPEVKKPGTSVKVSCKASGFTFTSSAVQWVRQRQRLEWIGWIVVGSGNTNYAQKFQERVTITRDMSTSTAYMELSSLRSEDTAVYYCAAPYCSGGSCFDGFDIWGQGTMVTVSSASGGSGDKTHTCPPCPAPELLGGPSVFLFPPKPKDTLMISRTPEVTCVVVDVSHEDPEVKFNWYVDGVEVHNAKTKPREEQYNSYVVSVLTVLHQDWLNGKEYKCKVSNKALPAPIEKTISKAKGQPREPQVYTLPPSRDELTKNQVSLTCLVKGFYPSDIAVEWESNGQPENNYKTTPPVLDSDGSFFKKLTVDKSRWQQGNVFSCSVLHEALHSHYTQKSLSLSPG
MX493 (A19-46 × A23-58H/B1-182L CL-CH1) (bispecific antibody), sequence (chain): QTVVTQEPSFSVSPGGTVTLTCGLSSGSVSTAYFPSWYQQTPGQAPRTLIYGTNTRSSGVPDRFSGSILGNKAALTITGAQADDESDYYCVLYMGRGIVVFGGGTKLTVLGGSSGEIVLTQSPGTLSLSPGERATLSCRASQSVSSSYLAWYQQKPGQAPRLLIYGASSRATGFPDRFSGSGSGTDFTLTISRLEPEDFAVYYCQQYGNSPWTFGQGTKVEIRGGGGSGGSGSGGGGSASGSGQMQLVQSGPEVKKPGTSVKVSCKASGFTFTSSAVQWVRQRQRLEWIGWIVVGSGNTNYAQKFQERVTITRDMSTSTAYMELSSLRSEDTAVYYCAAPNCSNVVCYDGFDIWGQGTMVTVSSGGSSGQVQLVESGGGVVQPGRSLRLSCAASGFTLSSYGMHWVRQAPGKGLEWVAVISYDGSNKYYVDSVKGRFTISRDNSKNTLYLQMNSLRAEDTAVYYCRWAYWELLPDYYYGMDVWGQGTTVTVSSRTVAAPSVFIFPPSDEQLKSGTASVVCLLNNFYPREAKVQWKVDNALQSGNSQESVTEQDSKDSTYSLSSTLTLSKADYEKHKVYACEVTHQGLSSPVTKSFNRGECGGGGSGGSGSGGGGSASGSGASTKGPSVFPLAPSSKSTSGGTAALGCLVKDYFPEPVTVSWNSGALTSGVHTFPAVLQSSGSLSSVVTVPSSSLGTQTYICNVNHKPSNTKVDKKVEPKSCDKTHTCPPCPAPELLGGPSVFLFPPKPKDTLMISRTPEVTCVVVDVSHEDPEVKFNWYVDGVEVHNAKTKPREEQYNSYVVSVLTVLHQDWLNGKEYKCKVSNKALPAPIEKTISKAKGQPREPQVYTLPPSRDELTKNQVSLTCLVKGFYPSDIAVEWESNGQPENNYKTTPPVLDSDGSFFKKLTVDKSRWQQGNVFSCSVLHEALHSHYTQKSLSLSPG
MX491 (A23-58H/B1-182L × A19-46 CL-CH1) (bispecific antibody), sequence (chain): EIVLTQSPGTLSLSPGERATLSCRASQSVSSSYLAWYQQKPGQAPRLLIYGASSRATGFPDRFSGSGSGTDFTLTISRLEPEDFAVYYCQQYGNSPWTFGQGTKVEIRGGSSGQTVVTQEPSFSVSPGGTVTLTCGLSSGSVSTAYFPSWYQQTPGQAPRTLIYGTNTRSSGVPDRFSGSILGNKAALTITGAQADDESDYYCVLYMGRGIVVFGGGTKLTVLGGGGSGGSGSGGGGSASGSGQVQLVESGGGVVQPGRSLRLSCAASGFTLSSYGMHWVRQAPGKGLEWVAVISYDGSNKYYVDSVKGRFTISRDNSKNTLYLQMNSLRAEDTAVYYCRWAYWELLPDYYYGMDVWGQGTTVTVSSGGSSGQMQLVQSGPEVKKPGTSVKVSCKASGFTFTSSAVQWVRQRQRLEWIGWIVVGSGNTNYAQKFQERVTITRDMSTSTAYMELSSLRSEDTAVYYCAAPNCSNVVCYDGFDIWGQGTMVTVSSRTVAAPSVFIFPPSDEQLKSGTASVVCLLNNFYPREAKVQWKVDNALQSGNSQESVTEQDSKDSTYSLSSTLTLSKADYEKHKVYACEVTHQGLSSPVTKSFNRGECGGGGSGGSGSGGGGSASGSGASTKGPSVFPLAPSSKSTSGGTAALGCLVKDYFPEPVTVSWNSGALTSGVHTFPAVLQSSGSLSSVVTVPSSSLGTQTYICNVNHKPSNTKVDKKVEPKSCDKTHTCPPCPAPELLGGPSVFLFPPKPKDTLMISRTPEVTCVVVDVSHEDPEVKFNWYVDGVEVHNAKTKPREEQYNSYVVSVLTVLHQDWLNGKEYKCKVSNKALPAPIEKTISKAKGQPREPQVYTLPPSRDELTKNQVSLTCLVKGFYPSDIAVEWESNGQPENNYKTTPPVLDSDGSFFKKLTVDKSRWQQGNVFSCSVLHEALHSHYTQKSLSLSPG
MX467 (A23-58H/B1-182L × A19-61 CL-CH1) (bispecific antibody), sequence (chain): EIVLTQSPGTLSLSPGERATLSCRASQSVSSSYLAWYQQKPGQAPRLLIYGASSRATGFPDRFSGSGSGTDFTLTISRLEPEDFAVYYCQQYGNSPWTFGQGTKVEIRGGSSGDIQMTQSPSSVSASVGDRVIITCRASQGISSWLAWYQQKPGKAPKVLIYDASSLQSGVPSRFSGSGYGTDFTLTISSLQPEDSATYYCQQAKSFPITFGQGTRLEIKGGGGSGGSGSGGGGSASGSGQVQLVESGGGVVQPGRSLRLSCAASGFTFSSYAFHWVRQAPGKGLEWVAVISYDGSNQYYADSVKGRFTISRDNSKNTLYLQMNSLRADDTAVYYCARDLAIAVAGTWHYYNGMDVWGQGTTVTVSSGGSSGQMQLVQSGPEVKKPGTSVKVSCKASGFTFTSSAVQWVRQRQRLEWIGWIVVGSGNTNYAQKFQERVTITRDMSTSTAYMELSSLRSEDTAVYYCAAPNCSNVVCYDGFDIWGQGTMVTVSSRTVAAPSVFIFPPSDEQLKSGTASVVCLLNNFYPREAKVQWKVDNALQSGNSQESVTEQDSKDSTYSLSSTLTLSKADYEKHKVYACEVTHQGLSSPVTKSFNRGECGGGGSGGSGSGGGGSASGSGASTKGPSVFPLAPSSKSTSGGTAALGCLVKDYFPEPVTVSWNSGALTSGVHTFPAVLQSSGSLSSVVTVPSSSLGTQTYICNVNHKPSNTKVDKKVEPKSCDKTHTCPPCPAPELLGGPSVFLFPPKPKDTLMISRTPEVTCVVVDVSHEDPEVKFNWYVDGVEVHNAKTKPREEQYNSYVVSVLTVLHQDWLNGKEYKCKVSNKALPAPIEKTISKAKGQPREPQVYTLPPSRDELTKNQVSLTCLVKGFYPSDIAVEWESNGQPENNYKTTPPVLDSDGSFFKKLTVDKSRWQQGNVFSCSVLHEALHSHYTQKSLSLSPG

**Q.** For “MX492 (A19-46 × A23-58H/B1-182L) (bispecific antibody)”, which IC50, pseudovirus neutralization [1] is on record?
**A.** 0.107 nM

**Q.** And the IC80, pseudovirus neutralization [1]?
**A.** 0.93 nM

**Q.** What about the IC50, pseudovirus neutralization [2] of the same substance?
**A.** 0.0058 nM

**Q.** And the IC80, pseudovirus neutralization [2]?
**A.** 0.0369 nM

**Q.** And the IC50, pseudovirus neutralization [3]?
**A.** 0.0201 nM

**Q.** What about the IC80, pseudovirus neutralization [3] of the same substance?
**A.** 0.0451 nM

**Q.** How did the IC50, pseudovirus neutralization [1] turn out when A23-58H/B1-182L mAb (antibody) was run?
**A.** 0.83 nM

**Q.** What about the IC80, pseudovirus neutralization [1] of the same substance?
**A.** 3.27 nM

**Q.** And the IC50, pseudovirus neutralization [4]?
**A.** 0.0104 nM

**Q.** What about the IC80, pseudovirus neutralization [4] of the same substance?
**A.** 0.0205 nM

**Q.** What about the IC50, pseudovirus neutralization [2] of the same substance?
**A.** 0.364 nM

**Q.** What about the IC80, pseudovirus neutralization [2] of the same substance?
**A.** 1.39 nM

**Q.** What about the IC50, pseudovirus neutralization [5] of the same substance?
**A.** 0.0174 nM

**Q.** And the IC80, pseudovirus neutralization [5]?
**A.** 0.0376 nM

**Q.** What about the IC50, pseudovirus neutralization [3] of the same substance?
**A.** 0.544 nM

**Q.** And the IC80, pseudovirus neutralization [3]?
**A.** 2.48 nM

**Q.** What about the IC50, pseudovirus neutralization [6] of the same substance?
**A.** 0.0305 nM

**Q.** What about the IC80, pseudovirus neutralization [6] of the same substance?
**A.** 0.0966 nM

**Q.** And the IC50, pseudovirus neutralization [7]?
**A.** 0.0116 nM

**Q.** And the IC80, pseudovirus neutralization [7]?
**A.** 0.0237 nM

**Q.** And the IC50, pseudovirus neutralization [8]?
**A.** 0.0402 nM

**Q.** And the IC80, pseudovirus neutralization [8]?
**A.** 0.108 nM

**Q.** And the IC50, pseudovirus neutralization [9]?
**A.** 0.0207 nM

**Q.** What about the IC80, pseudovirus neutralization [9] of the same substance?
**A.** 0.0348 nM

**Q.** What does the source list for “MX467 (A23-58H/B1-182L × A19-61 CL-CH1) (bispecific antibody)”?
**A.** IC50, pseudovirus neutralization [1]: 0.0181 nM; IC80, pseudovirus neutralization [1]: 0.127 nM; IC50, pseudovirus neutralization [2]: 18.5 nM; IC80, pseudovirus neutralization [2]: 69.4 nM; IC50, pseudovirus neutralization [3]: 0.0373 nM; IC80, pseudovirus neutralization [3]: 0.0738 nM

**Q.** “MX493 (A19-46 × A23-58H/B1-182L CL-CH1) (bispecific antibody)” was tested. Which IC50, pseudovirus neutralization [1] did it give?
**A.** 0.0331 nM

**Q.** What about the IC80, pseudovirus neutralization [1] of the same substance?
**A.** 0.0858 nM

**Q.** And the IC50, pseudovirus neutralization [2]?
**A.** 0.0158 nM

**Q.** What about the IC80, pseudovirus neutralization [2] of the same substance?
**A.** 0.0387 nM

**Q.** What about the IC50, pseudovirus neutralization [3] of the same substance?
**A.** 0.02 nM

**Q.** And the IC80, pseudovirus neutralization [3]?
**A.** 0.0464 nM

**Q.** What does the source list for “MX180 (B1-182 × A19-46) (bispecific antibody)”?
**A.** IC50, pseudovirus neutralization [1]: 0.584 nM; IC80, pseudovirus neutralization [1]: 2.82 nM; IC50, pseudovirus neutralization [2]: 0.0187 nM; IC80, pseudovirus neutralization [2]: 0.0652 nM; IC50, pseudovirus neutralization [3]: 0.041 nM; IC80, pseudovirus neutralization [3]: 0.103 nM

**Q.** What does the source list for A23-58 mAb (antibody)?
**A.** IC50, pseudovirus neutralization [1]: 0.647 nM; IC80, pseudovirus neutralization [1]: 4.96 nM; IC50, pseudovirus neutralization [4]: 0.0133 nM; IC80, pseudovirus neutralization [4]: 0.0358 nM; IC50, pseudovirus neutralization [2]: 0.853 nM; IC80, pseudovirus neutralization [2]: 4.24 nM; IC50, pseudovirus neutralization [5]: 0.0329 nM; IC80, pseudovirus neutralization [5]: 0.104 nM; IC50, pseudovirus neutralization [3]: 1.68 nM; IC80, pseudovirus neutralization [3]: 5.69 nM; IC50, pseudovirus neutralization [6]: 0.123 nM; IC80, pseudovirus neutralization [6]: 0.339 nM; IC50, pseudovirus neutralization [7]: 0.0097 nM; IC80, pseudovirus neutralization [7]: 0.0437 nM; IC50, pseudovirus neutralization [8]: 0.124 nM; IC80, pseudovirus neutralization [8]: 0.26 nM; IC50, pseudovirus neutralization [9]: 0.0287 nM; IC80, pseudovirus neutralization [9]: 0.0656 nM

**Q.** With “MX491 (A23-58H/B1-182L × A19-46 CL-CH1) (bispecific antibody)” as the substance, how does the IC50, pseudovirus neutralization [1] read?
**A.** 1.44 nM

**Q.** And the IC80, pseudovirus neutralization [1]?
**A.** 7.81 nM

**Q.** And the IC50, pseudovirus neutralization [2]?
**A.** 0.0316 nM

**Q.** What about the IC80, pseudovirus neutralization [2] of the same substance?
**A.** 0.0928 nM

**Q.** And the IC50, pseudovirus neutralization [3]?
**A.** 0.0489 nM

**Q.** What about the IC80, pseudovirus neutralization [3] of the same substance?
**A.** 0.114 nM

**Q.** Which results are given for A23-58H/B1-182L hybrid antibody?
**A.** IC50, pseudovirus neutralization [10]: > 10000 nM; IC80, pseudovirus neutralization [10]: > 10000 nM; IC50, pseudovirus neutralization [11]: 20 nM; IC80, pseudovirus neutralization [11]: 102 nM; IC50, pseudovirus neutralization [12]: 5 nM; IC80, pseudovirus neutralization [12]: 35 nM; IC50, pseudovirus neutralization [13]: > 10000 nM; IC80, pseudovirus neutralization [13]: > 10000 nM

**Q.** Which IC50, pseudovirus neutralization [1] does the source give for “MX466 (A23-58H/B1-182L Cl-CH1 Tetravalent) (antibody)” here?
**A.** 0.586 nM

**Q.** And the IC80, pseudovirus neutralization [1]?
**A.** 18 nM

**Q.** What about the IC50, pseudovirus neutralization [2] of the same substance?
**A.** 0.57 nM

**Q.** And the IC80, pseudovirus neutralization [2]?
**A.** 8.23 nM

**Q.** What about the IC50, pseudovirus neutralization [3] of the same substance?
**A.** 2.47 nM

**Q.** And the IC80, pseudovirus neutralization [3]?
**A.** 44.2 nM

**Q.** Which IC50, pseudovirus neutralization [1] does the source give for “MX 490 (A23-58H/B1-182L × A19-46) (bispecific antibody)” here?
**A.** > 6.7 nM

**Q.** And the IC80, pseudovirus neutralization [1]?
**A.** > 6.7 nM

**Q.** What about the IC50, pseudovirus neutralization [2] of the same substance?
**A.** 0.22 nM

**Q.** What about the IC80, pseudovirus neutralization [2] of the same substance?
**A.** 0.484 nM

**Q.** What about the IC50, pseudovirus neutralization [3] of the same substance?
**A.** 0.392 nM

**Q.** What about the IC80, pseudovirus neutralization [3] of the same substance?
**A.** 0.896 nM
